# Source: doi:10.1101/2024.08.08.607204, “Mechanism of ASF1 Inhibition by CDAN1” (bioRxiv, 2024)
# Values joined by “and” are separate entries in the source; they are usually repeats but may differ in a detail not shown here. Equal values may be shown once.
# B1: Strep-tagged CDAN1 (ST-CDAN1), wildtype (natural protein, human)
# chain: MAAVLESLLREEVSVAAVVRWIARSTQGSEDNAGEAAALSSLRALRKEFVPFLLNFLREQSSRVLPQGPPTPAKTPGASAALPGRPGGPPRGSRGARSQLFPPTEAQSTAAEAPLARRGGRRRGPGPARERGGRGLEEGVSGESLPGAGGRRLRGSGSPSRPSLTLSDPPNLSNLEEFPPVGSVPPGPTGTKPSRRINPTPVSEERSLSKPKTCFTSPPISCVPSSQPSALDTSPWGLGLPPGCRSLQEEREMLRKERSKQLQQSPTPTCPTPELGSPLPSRTGSLTDEPADPARVSSRQRLELVALVYSSCIAENLVPNLFLELFFVFQLLTARRMVTAKDSDPELSPAVLDSLESPLFQSIHDCVFFAVQVLECHFQVLSNLDKGTLKLLAENERLLCFSPALQGRLRAAYEGSVAKVSLVMPPSTQAVSFQPETDNRANFSSDRAFHTFKKQRDVFYEVLREWEDHHEEPGWDFEKGLGSRIRAMMGQLSAACSHSHFVRLFQKQLLQMCQSPGGAGGTVLGEAPDVLSMLGADKLGRLWRLQERLMAPQSSGGPCPPPTFPGCQGFFRDFILSASSFQFNQHLMDSLSLKIQELNGLALPQHEPNDEDGESDVDWQGERKQFAVVLLSLRLLAKFLGFVAFLPYRGPEPPPTGELQDSILALRSQVPPVLDVRTLLQRGLQARRAVLTVPWLVEFLSFADHVVPLLEYYRDIFTLLLRLHRSLVLSQESEGKMCFLNKLLLLAVLGWLFQIPTVPEDLFFLEEGPSYAFEVDTVAPEHGLDNAPVVDQQLLYTCCPYIGELRKLLASWVSGSSGRSGGFMRKITPTTTTSLGAQPSQTSQGLQAQLAQAFFHNQPPSLRRTVEFVAERIGSNCVKHIKATLVADLVRQAESLLQEQLVTQGEEGGDPAQLLEILCSQLCPHGAQALALGREFCQRKSPGAVRALLPEETPAAVLSSAENIAVGLATEKACAWLSANITALIRREVKAAVSRTLRAQGPEPAARGERRGCSRACEHHAPLPSHLISEIKDVLSLAVGPRDPDEGVSPEHLEQLLGQLGQTLRCRQFLCPPAEQHLAKCSVELASLLVADQIPILGPPAQYRLERGQARRLLHMLLSLWKEDFQGPVPLQLLLSPRNVGLLADTRPREWDLLLFLLRELVEKGLMGRMEIEACLGSLHQAQWPGDFAEELATLSNLFLAEPHLPEPQLRACELVQPNRGTVLAQS
# notes: Codanin-1 (CDAN1) cDNA from Horizon Discovery/Dharmacon; a point mutation of the clone (S421F) was corrected; in pCDNA3.1; Dimer by SEC-MALS and cryo-EM; Same plasmid used in Expi293 (purifications) and in Flp-In 293 T-REx (pulldowns); kept as one molecule; also called WT CDAN1; Strep-CDAN1; source: Expi293, transiently transfected, in lysate and purified in complexes (anti-FLAG, Strep-Tactin); …
# B2: FLAG-tagged CDIN1 (F-CDIN1) (natural protein, UniProt Q9Y2V0 1-281, looked up)
# chain: MILTKAQYDEIAQCLVSVPPTRQSLRKLKQRFPSQSQATLLSIFSQEYQKHIKRTHAKHHTSEAIESYYQRYLNGVVKNGAAPVLLDLANEVDYAPSLMARLILERFLQEHEETPPSKSIINSMLRDPSQIPDGVLANQVYQCIVNDCCYGPLVDCIKHAIGHEHEVLLRDLLLEKNLSFLDEDQLRAKGYDKTPDFILQVPVAVEGHIIHWIESKASFGDECSHHAYLHDQFWSYWNRFGPGLVIYWYGFIQELDCNRERGILLKACFPTNIVTLCHSIA
# notes: CDIN1 (C15orf41) cDNA synthesized by IDT, in pCDNA3.1; source: Expi293, transiently transfected, in lysate and purified in complexes (anti-FLAG, Strep-Tactin); not shown: 3xFLAG, N-terminal, kept
# B3: CDAN1 MA3 domain (ST-CDAN1C, residues 1008-1227) (domain or fragment, human, UniProt Q8IWY9 1008-1227, looked up)
# chain: GERRGCSRACEHHAPLPSHLISEIKDVLSLAVGPRDPDEGVSPEHLEQLLGQLGQTLRCRQFLCPPAEQHLAKCSVELASLLVADQIPILGPPAQYRLERGQARRLLHMLLSLWKEDFQGPVPLQLLLSPRNVGLLADTRPREWDLLLFLLRELVEKGLMGRMEIEACLGSLHQAQWPGDFAEELATLSNLFLAEPHLPEPQLRACELVQPNRGTVLAQS
# notes: Codanin-1 (CDAN1), MA3 domain, residues 1008-1227; also called Strep-CDAN1C; CDAN1 C-term; source: Expi293, transiently transfected, purified in complex with F-CDIN1 (anti-FLAG, Strep-Tactin); not shown: 3xStrep-II-TEV, N-terminal, kept
# Legend:
# [1] = molecular target: the molecule itself; assay: SEC-MALS; 200 μg of each purified complex at 5 μM on an SRT SEC-300 column with DAWN HELEOS II detector; dn/dc 0.185
# [2] = molecular target: B1; assay: as above; details: both partners purified
# [3] = molecular target: B2; assay: cryo-EM structure; purified CDAN1 C-term:CDIN1 (C:C) complex crosslinked with BS3, 0.78 mg/mL; single-particle cryo-EM, ~6 Å reconstruction; details: both partners purified
binder,measurement,setting,value
B1,stoichiometry N,[1],2 copies of CDAN1 in the C:A complex and 2 copies of CDAN1 in the C:C:A complex
B2,stoichiometry N,[2],2 copies of CDIN1 per two copies of CDAN1
B3,binding result,[3],binds
